What was measured:
Assay in all cases: pull-down binding Z-score (relative to library population); higher = stronger binding
[1] = tested on: TO-3-N3 (biotin conjugate); details: RNA library: Library-2
How it was run: (§1)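 Cy5- or Cy3-end-labelled RNA library (1 μg) was heat-folded in phosphate/NaCl/KCl buffer and incubated 60 min at 25 °C with streptavidin beads carrying 100 pmol biotin-conjugated small molecule. After three washes, bound RNA was eluted in hot SDS and hybridised 20 h at 55.5 °C to a DNA barcode microarray. Binding was scored by subtracting a beads-only control, averaging barcoded replicate probes after dropping highest and lowest, and converting to a Z-score against library mean and standard deviation.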

[2] = tested on: TO-3-N3-2 (biotin conjugate); details: RNA library: Library-2
How it was run: as §1

[3] = tested on: TO-N3-2 (biotin conjugate); details: RNA library: Library-2
How it was run: as §1

[4] = tested on: G-clamp-N3 (biotin conjugate); details: RNA library: Library-1 (pre-miRNA loops + repeats)
How it was run: as §1

TO-N3 (biotin conjugate) = details: RNA library: Library-2
How it was run: as §1

| Sequence | pull-down binding Z-score [1] | pull-down binding Z-score [2] | pull-down binding Z-score [3] | pull-down binding Z-score [4] | pull-down binding Z-score (TO-N3 (biotin conjugate)) |
| --- | --- | --- | --- | --- | --- |
| CCUUCUACCAAGUUAAGCAUACUCAUUAGAAGG [hsa-mir-3914-2] | 0.653 | -0.151 | -0.346 | -0.275 | 0.418 |
| CCUUCUCCUCUUUGCAGUGAUAAAGGAGG [hsa-mir-4460] | -0.304 | -0.351 | -0.549 | -0.412 | -0.61 |
| CCUUCUGCUUACAGGUAUUGGAAGG [hsa-mir-3158-1] | -0.281 | -0.401 | -0.685 | 0.832 | -0.371 |
| CCUUCUGUAUACAUGUAUACAGGAGGAAGG [hsa-mir-4716] | 0.507 | 0.0583 | 0.00714 | 0.64 | 0.495 |
| CCUUGCCUGUGGCAAGACCACUUCGGUUCAAGG [hsa-mir-4295] | 0.0272 | -0.191 | 0.237 | 0.54 | 0.0379 |
| CCUUGUGAAUGUCGGGCAAUGG [hsa-mir-4701] | -0.0355 | 0.357 | 0.503 | 1.59 | 0.267 |
| CCUUUCCCCUCAGACCAAGG [hsa-mir-3131] | -0.315 | -0.26 | -0.176 | -0.0682 | -0.412 |
| CCUUUGUGAGCAGUGUGACCCAAGGCCUGUGGACAGGG [hsa-mir-555] | -0.0854 | -0.351 | 1.15 | 0.911 | 0.241 |
| CGACUCCGUGGCAGAGUUCA [hsa-mir-3666] | 0.331 | -0.00234 | 0.845 | -1.1 | 0.805 |
| CGAGAAGCGCCUGCGUCUCCCAUUUUCG [hsa-mir-3944] | 0.199 | 0.16 | 1.37 | -1 | 0.763 |
| CGAGACACAGAAACAGACACCUGCCCUCGA [hsa-mir-151b] | 0.442 | 0.464 | 1.69 | -2.29 | 1.21 |
| CGAGCCGCUUCCUCACGGCUCG [hsa-mir-4665] | -0.622 | -0.853 | -0.871 | 0.651 | -1.04 |
| CGAGGUGG [hsa-mir-4302] | 0.954 | -0.0533 | 0.675 | -0.91 | 0.973 |
| CGAGGUGGGCUAGGCUCGGGCCCGUGGCG [hsa-mir-3656] | 0.715 | 0.185 | 2.8 | 2.89 | 1.7 |
| CGAGUCUGAGCCUUUAAAAGCCACUCU [hsa-mir-1287] | -0.321 | -0.012 | 0.586 | -1.4 | 0.0262 |
| CGAUAAACCCCUAAAUAGGGACUUUCCCG [hsa-mir-484] | -0.473 | -0.266 | -0.157 | -0.934 | -0.511 |
| CGCCAGCUCGCUGACAGCACGACUCAGGGCG [hsa-mir-658] | -0.127 | 0.383 | 1.15 | 0.902 | 0.25 |
| CGCGCCCGGCCUAACUUUUAAGAAACGUCGGCCCGGGAGCG [hsa-mir-5095] | 1.24 | 0.695 | 1.15 | -0.0298 | 1.27 |

| Sequence | pull-down binding Z-score [1] | pull-down binding Z-score [2] | pull-down binding Z-score [3] | pull-down binding Z-score [4] | pull-down binding Z-score (TO-N3 (biotin conjugate)) |
| --- | --- | --- | --- | --- | --- |
| CGCGCGUCGAGUCAGCCGUGUG [hsa-mir-933] | -0.126 | -0.276 | 0.532 | 1.31 | 0.126 |
| CGCGGAGCAGCGCUGGGUGCAGCGCCUG [hsa-mir-4508] | -0.051 | -0.27 | 1.5 | -0.567 | 0.334 |
| CGCGGGCGGGUCCCAGGCUGGGCCCCUCGGAGGCCGGGUGCUCACUGCCCCGUCCCGG [hsa-mir-6789] | 0.75 | -0.0304 | 4.13 | 0.322 | 1.7 |
| CGCUAGUAGUGGCG [hsa-mir-3960] | -0.152 | -0.644 | -0.869 | 0.808 | -0.435 |
| CGCUGAUGUGCAUUCAACUCAUUCUCAGCA [hsa-mir-1468] | -0.116 | -0.226 | 0.000597 | -1.2 | 0.0154 |
| CGCUGCCUGGAAUUAACCCCGCUGUG [hsa-mir-636] | 0.493 | -0.249 | 0.891 | -1.15 | 0.517 |
| CGCUGCUGGCUGCCUUCCAGCG [hsa-mir-4533] | 0.221 | -0.568 | 0.26 | 0.074 | 0.079 |
| CGGAAUUCUCCAGAGCCUCUG [hsa-mir-6889] | 0.188 | 0.0162 | 0.584 | -0.773 | 0.453 |
| CGGACACCCGGCCUCCACUUUCUGUGGCAGGUACCUCCUCCA [hsa-mir-4505] | 0.675 | 0.209 | 1.47 | 0.149 | 1.05 |
| CGGACGUUGCUCUCUACCCCG [hsa-mir-1247] | 0.389 | 0.262 | 1.03 | -0.101 | 0.839 |
| CGGAGCAGUCACGUUGACGGAAUCCUCCG [hsa-mir-3183] | 0.234 | -0.255 | 0.498 | 0.489 | 0.329 |
| CGGAGCCUCGCAGGGUCGGGCUCGGGCUCCCUAACCGUCUCCGCUUCUUC [hsa-mir-6084] | 0.896 | 0.558 | 1.77 | -0.288 | 1.36 |
| CGGAUCUCGAGGGUGCUUAUUGUUCGGUCCG [hsa-mir-615] | 0.418 | 0.219 | 0.351 | 1.11 | 0.185 |
| CGGCGGCGGCGGCGGCGGCGGCGGCGGCGGCGGCGGCGGCGGCGGCGG [G4_r(CGG)16] | 8.23 | 9.63 | 5.03 | -0.145 | 6.82 |
| CGGGAACCUGCCUCCCG [hsa-mir-596] | 0.264 | -0.195 | -0.232 | -0.566 | 0.0562 |
| CGGGCCCCUCCCCUCAAUGGGCCCG [hsa-mir-5685] | -0.255 | -0.162 | -0.886 | 0.108 | -0.493 |
| CGGGCUGAUUGCGCUAACAGUGGCCCC [hsa-mir-4783] | -0.256 | -0.117 | 1.12 | -0.491 | 0.248 |
| CGGGGCGGACGCAGAGCCGCGUUUAGUCUAUCG [hsa-mir-639] | 0.0365 | -0.137 | 1.12 | -0.413 | 0.593 |

Source: the supplement of paper PMC11865577
